Measurements published in patent publication US20010023062A1.

Key:
[1] = target: IL-5Rα/IFNaR2-2 + βc/IFNaR1 (human) (UniProt Q01344); experiment: cell-based or functional assay
[2] = target: IL-5Rα/IFNaR1 + βc/IFNaR2-2 (human) (UniProt Q01344); experiment: cell-based or functional assay

| SEAP activity (6-16SEAP reporter, transient transfection of 2fTGH cells), 1 ng/ml IL-5, against untreated cells [1] | SEAP activity (6-16SEAP reporter, transient transfection of 2fTGH cells), 2 ng/ml IL-5, against untreated cells [1] | colonies in HAT + IL-5 (6-16 gpt selection, transfected 2fTGH cells, 1 ng/ml IL-5) [1] | colonies in HAT + IL-5 (6-16 gpt selection, transfected 2fTGH cells, 1 ng/ml IL-5) [2] | Substance | colonies surviving in HAT medium without added IL-5 (clone C cells transfected with pEFBOS-hIL-5syn) [1] |
| --- | --- | --- | --- | --- | --- |
|  |  |  |  | hIL-5syn (human IL-5 expressed by the cells from pEFBOS-hIL-5syn or pMET7-hIL-5syn) (from UniProt P05113 20-134) (ligand) | 6 colonies |
| 5 fold | 6 fold | 13 colonies | 3 colonies | IL-5 (produced in Sf9 cells using published methodologies) (from UniProt P05113 20-134) (ligand) |  |
